Source: paper PMC11574045, “A cofactor-induced repressive type of transcription factor condensation can be induced by synthetic peptides to suppress tumorigenesis” (The EMBO Journal, 2024)

System: HEK293FT cells transfected with TF library
Assay: Screening of TF condensates based on fluorescent puncta
Type: cell-based
Details: Figure 1B numerical data; TF library screen, one value per transcriptional factor
Procedure, shortened: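 Cells were seeded onto plasmid/PEI-loaded wells (plasmid 1.6 μg/ml final) and grown 60 h. Medium with or without glucose followed for 12 h. Fixed, permeabilized cells were stained against Flag or GAL4 tags, and condensate puncta were quantified from 50 random fields per well.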

Molecule | Z score of condensed fraction
NRIP1 (protein, UniProt P48552 1-1158, looked up) Nuclear receptor-interacting …: MTHGEELGSDVHQDSIVLTYLEGLLMHQAAGGSGTAVDKKSAGHNEEDQNFNISGSAFPTCQSNGPVLNTHTYQGSGMLHLKKARLLQSSEDWNAAKRKRLSDSIMNLNVKKEALLAGMVDSVPKGKQDSTLLASLLQSFSSRLQTVALSQQIRQSLKEQGYALSHDSLKVEKDLRCYGVASSHLKTLLKKSKVKDQKPDTNLPDVTKNLIRDRFAESPHHVGQSGTKVMSEPLSCAARLQAVASMVEKRASPATSPKPSVACSQLALLLSSEAHLQQYSREHALKTQNANQAASERLAAMARLQENGQKDVGSYQLPKGMSSHLNGQARTSSSKLMASKSSATVFQNPMGIIPSSPKNAGYKNSLERNNIKQAANNSLLLHLLKSQTIPKPMNGHSHSERGSIFEESSTPTTIDEYSDNNPSFTDDSSGDESSYSNCVPIDLSCKHRTEKSESDQPVSLDNFTQSLLNTWDPKVPDVDIKEDQDTSKNSKLNSHQKVTLLQLLLGHKNEENVEKNTSPQGVHNDVSKFNTQNYARTSVIESPSTNRTTPVSTPPLLTSSKAGSPINLSQHSLVIKWNSPPYVCSTQSEKLTNTASNHSMDLTKSKDPPGEKPAQNEGAQNSATFSASKLLQNLAQCGMQSSMSVEEQRPSKQLLTGNTDKPIGMIDRLNSPLLSNKTNAVEENKAFSSQPTGPEPGLSGSEIENLLERRTVLQLLLGNPNKGKSEKKEKTPLRDESTQEHSERALSEQILMVKIKSEPCDDLQIPNTNVHLSHDAKSAPFLGMAPAVQRSAPALPVSEDFKSEPVSPQDFSFSKNGLLSRLLRQNQDSYLADDSDRSHRNNEMALLESKNLCMVPKKRKLYTEPLENPFKKMKNNIVDAANNHSAPEVLYGSLLNQEELKFSRNDLEFKYPAGHGSASESEHRSWARESKSFNVLKQLLLSENCVRDLSPHRSNSVADSKKKGHKNNVTNSKPEFSISSLNGLMYSSTQPSSCMDNRTFSYPGVVKTPVSPTFPEHLGCAGSRPESGLLNGCSMPSEKGPIKWVITDAEKNEYEKDSPRLTKTNPILYYMLQKGGNSVTSRETQDKDIWREASSAESVSQVTAKEELLPTAETKASFFNLRSPYNSHMGNNASRPHSANGEVYGLLGSVLTIKKESE | 2.676
NR5A1/FTZ-F1A (protein, UniProt P33242 1-462, looked up) Steroidogenic factor 1: MDYSYDEDLDELCPVCGDKVSGYHYGLLTCESCKGFFKRTVQNNKHYTCTESQSCKIDKTQRKRCPFCRFQKCLTVGMRLEAVRADRMRGGRNKFGPMYKRDRALKQQKKAQIRANGFKLETGPPMGVPPPPPPPPDYMLPPSLHAPEPKALVSGPPSGPLGDFGAPSLPMAVPGPHGPLAGYLYPAFSNRTIKSEYPEPYASPPQQPGPPYSYPEPFSGGPNVPELILQLLQLEPEEDQVRARIVGCLQEPAKSRSDQPAPFSLLCRMADQTFISIVDWARRCMVFKELEVADQMTLLQNCWSELLVLDHIYRQVQYGKEDSILLVTGQEVELSTVAVQAGSLLHSLVLRAQELVLQLHALQLDRQEFVCLKFLILFSLDVKFLNNHSLVKDAQEKANAALLDYTLCHYPHCGDKFQQLLLCLVEVRALSMQAKEYLYHKHLGNEMPRNNLLIEMLQAKQT | -0.1726
NR3C2 (protein, UniProt P08235 1-984, looked up) Mineralocorticoid receptor: METKGYHSLPEGLDMERRWGQVSQAVERSSLGPTERTDENNYMEIVNVSCVSGAIPNNSTQGSSKEKQELLPCLQQDNNRPGILTSDIKTELESKELSATVAESMGLYMDSVRDADYSYEQQNQQGSMSPAKIYQNVEQLVKFYKGNGHRPSTLSCVNTPLRSFMSDSGSSVNGGVMRAVVKSPIMCHEKSPSVCSPLNMTSSVCSPAGINSVSSTTASFGSFPVHSPITQGTPLTCSPNVENRGSRSHSPAHASNVGSPLSSPLSSMKSSISSPPSHCSVKSPVSSPNNVTLRSSVSSPANINNSRCSVSSPSNTNNRSTLSSPAASTVGSICSPVNNAFSYTASGTSAGSSTLRDVVPSPDTQEKGAQEVPFPKTEEVESAISNGVTGQLNIVQYIKPEPDGAFSSSCLGGNSKINSDSSFSVPIKQESTKHSCSGTSFKGNPTVNPFPFMDGSYFSFMDDKDYYSLSGILGPPVPGFDGNCEGSGFPVGIKQEPDDGSYYPEASIPSSAIVGVNSGGQSFHYRIGAQGTISLSRSARDQSFQHLSSFPPVNTLVESWKSHGDLSSRRSDGYPVLEYIPENVSSSTLRSVSTGSSRPSKICLVCGDEASGCHYGVVTCGSCKVFFKRAVEGQHNYLCAGRNDCIIDKIRRKNCPACRLQKCLQAGMNLGARKSKKLGKLKGIHEEQPQQQQPPPPPPPPQSPEEGTTYIAPAKEPSVNTALVPQLSTISRALTPSPVMVLENIEPEIVYAGYDSSKPDTAENLLSTLNRLAGKQMIQVVKWAKVLPGFKNLPLEDQITLIQYSWMCLSSFALSWRSYKHTNSQFLYFAPDLVFNEEKMHQSAMYELCQGMHQISLQFVRLQLTFEEYTIMKVLLLLSTIPKDGLKSQAAFEEMRTNYIKELRKMVTKCPNNSGQSWQRFYQLTKLLDSMHDLVSDLLEFCFYTFRESHALKVEFPAMLVEIISDQLPKVESGNAKPLYFHRK | -0.7191
NR2F6 (protein, UniProt P10588 1-404, looked up) Nuclear receptor subfamily 2 …: MAMVTGGWGGPGGDTNGVDKAGGYPRAAEDDSASPPGAASDAEPGDEERPGLQVDCVVCGDKSSGKHYGVFTCEGCKSFFKRSIRRNLSYTCRSNRDCQIDQHHRNQCQYCRLKKCFRVGMRKEAVQRGRIPHSLPGAVAASSGSPPGSALAAVASGGDLFPGQPVSELIAQLLRAEPYPAAAGRFGAGGGAAGAVLGIDNVCELAARLLFSTVEWARHAPFFPELPVADQVALLRLSWSELFVLNAAQAALPLHTAPLLAAAGLHAAPMAAERAVAFMDQVRAFQEQVDKLGRLQVDSAEYGCLKAIALFTPDACGLSDPAHVESLQEKAQVALTEYVRAQYPSQPQRFGRLLLRLPALRAVPASLISQLFFMRLVGKTPIETLIRDMLLSGSTFNWPYGSGQ | 2.586
ATF7 (protein, UniProt P17544 1-483, looked up) Cyclic AMP-dependent …: MGDDRPFVCNAPGCGQRFTNEDHLAVHKHKHEMTLKFGPARTDSVIIADQTPTPTRFLKNCEEVGLFNELASSFEHEFKKAADEDEKKAAAGPLDMSLPSTPDIKIKEEEPVEVDSSPPDSPASSPCSPPLKEKEVTPKPVLISTPTPTIVRPGSLPLHLGYDPLHPTLPSPTSVITQAPPSNRQMGSPTGSLPLVMHLANGQTMPVLPGPPVQMPSVISLARPVSMVPNIPGIPGPPVNSSGSISPSGHPIPSEAKMRLKATLTHQVSSINGGCGMVVGTASTMVTARPEQSQILIQHPDAPSPAQPQVSPAQPTPSTGGRRRRTVDEDPDERRQRFLERNRAAASRCRQKRKLWVSSLEKKAEELTSQNIQLSNEVTLLRNEVAQLKQLLLAHKDCPVTALQKKTQGYLESPKESSEPTGSPAPVIQHSSATAPSNGLSVRSAAEAVATSVLTQMASQRTELSMPIQSHVIMTPQSQSAGR | -0.2253
NR2C1/TR2A (protein, UniProt Q505F1 1-590, looked up) Nuclear receptor subfamily 2 …: MATIEEIAHQIIDQQMGEIVTEQQTGQKIQIVTALDHSTQGKQFILANHEGSTPGKVFLTTPDAAGVNQLFFTSPDLSAPHLQLLTEKSPDQGPNKVFDLCVVCGDKASGRHYGAITCEGCKGFFKRSIRKNLVYSCRGSKDCVINKHHRNRCQYCRLQRCIAFGMKQDSVQCERKPIEVSREKSSNCAASTEKIYIRKDLRSPLAATPTFVTDSETARSAGLLDSGMFVNIHPSGIKTEPAMLMAPDKAESCQGDLSTLASVVTSLANLGKAKDLSHCGGDMPVVQSLRNGDTSFGAFHHDIQTNGDVSRAFDTLAKALTPGESSACQSPEEGMEGSPHLIAGEPSFVEKEGPLLSESHVAFRLTMPSPMPEYLNVHYIGESASRLLFLSMHWALSIPSFQALGQENSISLVKAYWNELFTLGLAQCWQVMNVATILATFVNCLHSSLQQDKMSPERRKSLMEHIFKLQEFCNSMVKLCIDGHEYAYLKAIVLFSPDHPGLENMELIERFQEKAYVEFQDYITRTYPDDTYRLSRLLLRLPALRLMNATITEELFFKGLIGNVRIDSVIPHILKMEPADYNSQIIGHSL | -0.6816
